According to publication PMC5007448, “Molecular logic of the Zur-regulated zinc deprivation response in Bacillus subtilis”:

B1: PznuA (dsDNA)
DNA 1: ATTTATTCTTGCAAAACGTAATGACTTCGGTTTATTATGATATAG
DNA 2: CTATATCATAATAAACCGAAGTCATTACGTTTTGCAAGAATAAAT
B2: PyciC (dsDNA)
DNA 1: ACCATACAATTTAAGTCGTAACAATTACGTTTTATGATAAATGGC
DNA 2: GCCATTTATCATAAAACGTAATTGTTACGACTTAAATTGTATGGT
B3: PrpsNB (dsDNA)
DNA 1: GAATGATACATTTTAAATCGTAACAATTTCGATTTAAAGGGAGGC
DNA 2: GCCTCCCTTTAAATCGAAATTGTTACGATTTAAAATGTATCATTC
B4: PrpmEB (dsDNA)
DNA 1: GTAAGGTTATAAAATAAAACGTAATTATTACGATTTATTGAAAGG
DNA 2: CCTTTCAATAAATCGTAATAATTACGTTTTATTTTATAACCTTAC
B5: PzinT (dsDNA)
DNA 1: ATGTATGTATAATAAATCGTAATGTTTTCGATTTAATAAAAAAGG
DNA 2: CCTTTTTTATTAAATCGAAAACATTACGATTTATTATACATACAT
B6: PfolEB (dsDNA)
DNA 1: ACCGATCAAAATAAATAGTAATTATTACGATTTGTTAGTGAGAGG
DNA 2: CCTCTCACTAACAAATCGTAATAATTACTATTTATTTTGATCGGT

These binders were tested against Zur C84S (Bacillus subtilis, UniProt P54479 1-145, C84S) (assay: EMSA; 0.1 uM ZnSO4; 20 mM Tris-HCl pH 6.4, 50 mM KCl, 1 mM DTT, 0.1 mg/ml BSA, 5% glycerol, 0.1 ug poly(dI-dC) in 20 ul, 0.1 uM ZnSO4; room temperature 20 min; gel at 4 C in TA pH). Conditions: protein: recombinant; tags: none stated; chain copies: 2; label: 5'-32P; blunt.
B1 was tested, and the Kd was 73 ± 2 nM.
B2 gave a Kd of 80.6 ± 3.2 nM.
In the case of B3, the Kd is reported as 16.5 ± 2.5 nM.
B4 was tested, and the Kd was 77.9 ± 4 nM.
B5 was tested, and the Kd was 75.5 ± 5.3 nM.
With B6 the Kd was 28.6 ± 2.5 nM.

The binders below were run against Zur WT (BsZur) (Bacillus subtilis, UniProt P54479 1-145) in the same assay as above. Conditions: protein: recombinant; tags: none stated; chain copies: 2; label: 5'-32P; blunt.
B1 showed a Kd of 12.5 ± 4 nM.
For B2, the Kd was 25.4 ± 1.1 nM.
In the case of B3, the Kd is reported as 14.3 ± 2.5 nM.
With B4 the Kd was 14.3 ± 2.6 nM.
Work on B5 yielded a Kd of 15.6 ± 3.5 nM.
B6 was tested, and the Kd was 21.9 ± 3.9 nM.

Each binder was assayed against Zur H124A (Bacillus subtilis, UniProt P54479 1-145, H124A) in the same assay as above. Conditions: protein: recombinant; tags: none stated; chain copies: 2; label: 5'-32P; blunt.
B1 was tested, and the Kd was 110 ± 3 nM.
B2 gave a Kd of 129 ± 3.8 nM.
Work on B3 yielded a Kd of 99 ± 1.6 nM.
B4 gave a Kd of 101 ± 2.3 nM.
For B5, the Kd was 96 ± 1.3 nM.
In the case of B6, the Kd is reported as 100 ± 4 nM.
